According to patent US20090227489A1, “STAT3 Agonists and Antagonists and Therapeutic Uses Thereof” (Johns Hopkins University, priority 2000, published 2009):

Experiments:
[1] = biological target: T1, Stat3 (Mus musculus, UniProt P42227); experiment: EMSA of Stat3 DNA-binding activity in nuclear extracts of transfected B16 cells; assay type: cell-based, murine; conditions: B16 cells transfected with Stat3β, hSIE probe
T1 construct: endogenous in cells; host or cells: B16 murine melanoma cells (nuclear extracts)
Procedure: FIG. 1. Inhibition of endogenous Stat3 (SEQ. ID. NO: 1; SEQ. ID. NO:2) DNA-binding activity in B16 cells by overexpression of Stat3β (SEQ. ID. NO:3; SEQ. ID. NO:4). EMSA was performed with nuclear extracts prepared from B16 cells transfected with no DNA (lane 1), empty vector (lane 2) or Stat3β expression vector (lane 3). Extracts from NIH3T3 fibroblasts stimulated with EGF were used as a positive control for Stat1 and Stat3 (lane 4). Supershifts were performed using antibodies recognizing either Stat3 (α-ST3) or Stat3:3 (α-ST3β) with extracts derived from B16 cells transfected with no DNA (lanes 5-7), the empty vector (lanes 8-10), or Stat3β vector (lanes 11-13). ST3:3, and ST1:3, ST1:1 indicate migration of complexes containing Stat3 or Stat3β homodimers, Stat1/Stat3 heterodimers and Stat1/Stat1 homodimers, respectively. The asterisk indicates the position of supershifted complexes.
Nuclear extracts and EMSA. Nuclear extract preparation and EMSA analysis of STAT DNA-binding activity were performed as previously described Catlett-Falcone et al., 1999, supra.
EGF-induced Stat3 binding activity in NIH3T3 (lane 4) was used as a positive control. By supershift analysis with antibody that recognizes Stat3 but not Stat3β or antibody that recognizes Stat3β but not Stat3, it was shown that there were Stat3-Stat3 homodimers in mock-transfected B16 cells and empty vector-transfected B16 cells.

[2] = tested on: B16 cells; experiment: Cell growth inhibition assay, live cells by trypan blue exclusion; assay type: cell-based, murine; conditions: 48 h later, vs pIRES-EGFP
Procedure: Cell growth inhibition assay. Cells were plated at 1.7×10^5 cells/well in 6-well plates, followed by transfection with either pIRES-EGFP or pIRES-Stat3β plasmids 24 h later. Cells were harvested at 24 h, 48 h or 72 h to determine the numbers of live cells. Cell viability was determined by trypan blue exclusion.
(§1) This G0/G1 phase arrest was observed as early as 24 hourspost transfection. At 48 hours post transfection with Stat3β vector, Annexin V-PE staining followed by FACS analysis to detect apoptotic activity was performed with transfected B16 cells. A high level of apoptosis in Stat3β transfected cells (75%) relative to empty vector transfected cells (25%) was observed, as shown in FIG. 2C. Increased levels of apoptosis as a result of Stat3β transfection was confirmed by confocal laser scanning microscope analysis using rhodamine-labelled TUNEL assay.

[3] = tested on: B16 cells; experiment: Apoptosis assay, Annexin V-PE staining and FACS; assay type: cell-based, murine; conditions: 48 hours post transfection; empty vector 25%
Procedure: Apoptosis assay. B16 cells transfected with pIRES-EGFP or pIRES-Stat3β were washed with CellScrub™ buffer (Gene Therapy Systems, San Diego, Calif.) 24 h after transfection. Apoptosis of transiently-transfected B16 cells was analyzed after staining with Annexin V-PE by two-color flow cytometry. Apoptosis of non-transfected tumor cells in the upper chambers of Transwell units was analyzed after staining with Annexin V-PE and VIA-PROBE™ 7-AAD (Pharmingen, San Diego, Calif.) by two-color flow cytometry.
as §1

[4] = tested on: B16 cells; experiment: RNase protection assays of cytokine and chemokine RNA in B16 cells; assay type: cell-based, murine; conditions: 36 h after transfection
Procedure: FIG. 7A-B. Stat3β expression in B16 cells upregulates the expression of pro-inflammatory chemokines and cytokines, which can stimulate peritoneal macrophages to produce NO. Elevated expression of pro-inflammatory cytokines and chemokines in B16 cells as a result of Stat3β expression (A. TNF-α, IL-6, IFN-β; B. IP-10). Total RNAs were prepared form mock-transfected, GFP-transfected, Stat3β-transfected and UV-irradiated B16 cells. Data shown have been confirmed with at least one more experiment, in which RNAs were prepared from independent transfectants and UV-irradiated B16 tumor cells.
RNase protection assays. 10 μg of total RNA isolated from either pIRES-EGFP- or pIRES-Stat3 β-transfected B16 cells (36 h after transfection) was hybridized to multi-template probes from PharMingen (mCK-5, Top Panel; mCK-3, Lower Panel) that were labeled with ^32P-dUTP using in vitro transcription. The RNA encoded by GAPDH housekeeping gene was used to normalize the amounts of RNAs loaded in each lane. Similar protocols were used to determine RNA expression profiles of macrophages treated with supernatants derived from B16 cells transfected with either Stat3β or GFP vector. […]
RNA expression profiles of a number of cytokines and chemokines in pIRES-Stat3β transfected B16 cells were determined. […]

[5] = tested on: VEGF; experiment: VEGF expression and Stat3 activity in v-Src-transformed NIH3T3 fibroblasts; assay type: cell-based
Source text: FIG. 10A-B. Transfection of NIH3T3-Src cells with either: A. Stat3β expression vector; or B. Stat3 anti-sense oligos, results in reduced levels of VEGF protein as shown by Western blot. Src tyrosine kinase-mediated VEGF upregulation requires Stat3. Src tyrosine activity is known to upregulate VEGF expression. In Src-transformed NIH3T3 cells, VEGF expression is high.
Src tyrosine kinase activity upregulates VEGF expression. […] NIH3T3 fibroblasts transformed by v-Src were transiently transfected with a dominant-negative variant of Stat3, Stat3β. The transfection efficiency was approximately 40% based on the number of cells that were fluorescent due to the presence of GFP. […] Forty-eight hours later, VEGF expression in v-Src-NIH3T3 fibroblasts with or without Stat3β expression was compared at both RNA and protein levels. […] Anti-sense oligonucleotides against Stat3 as well as control oligonucleotides were also transfected into v-Src-NIH3T3 cells.

T1 sequence (P42227 whole entry): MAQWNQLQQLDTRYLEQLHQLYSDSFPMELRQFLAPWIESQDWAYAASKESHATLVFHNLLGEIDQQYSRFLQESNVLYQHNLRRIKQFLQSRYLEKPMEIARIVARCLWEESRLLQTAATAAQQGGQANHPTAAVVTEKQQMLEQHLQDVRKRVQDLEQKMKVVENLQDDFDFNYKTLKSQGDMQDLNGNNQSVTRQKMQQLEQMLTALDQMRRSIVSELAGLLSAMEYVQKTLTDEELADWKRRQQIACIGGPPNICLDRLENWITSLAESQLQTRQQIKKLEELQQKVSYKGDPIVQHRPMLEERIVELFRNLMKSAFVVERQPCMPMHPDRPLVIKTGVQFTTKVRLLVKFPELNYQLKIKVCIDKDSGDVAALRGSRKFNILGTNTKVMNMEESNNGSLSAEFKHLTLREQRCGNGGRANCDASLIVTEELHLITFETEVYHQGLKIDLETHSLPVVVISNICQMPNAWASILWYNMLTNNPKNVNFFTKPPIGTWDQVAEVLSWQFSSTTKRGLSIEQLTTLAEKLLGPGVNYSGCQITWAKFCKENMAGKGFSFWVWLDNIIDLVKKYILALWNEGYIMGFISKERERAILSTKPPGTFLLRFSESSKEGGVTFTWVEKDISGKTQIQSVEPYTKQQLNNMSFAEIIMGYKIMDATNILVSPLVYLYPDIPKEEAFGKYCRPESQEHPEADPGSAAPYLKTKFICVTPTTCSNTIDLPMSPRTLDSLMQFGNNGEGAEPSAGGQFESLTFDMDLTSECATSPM

Stat3 DNA-binding complexes (supershift analysis) [1]: mostly Stat3β-Stat3β homodimer formation
Stat3 DNA binding activity (EMSA) ([5]; v-Src NIH3T3): loss of Stat3 DNA binding activity
B1: Stat3β: dominant-negative Stat3 variant, truncated form lacking the transactivation domain; delivered by the pIRES-Stat3β expression vector (protein)
chain: AQWNQLQQLDTRYLEQLHQLYSDSFPMELRQFLAPWIESQDWAYAASKESHATLVFHNLLGEIDQQYSRFLQESNVLYQHNLRRIKQFLQSRYLEKPMEIARIVARCLWEESRLLQTAATAAQQGGQANHPTAAVVTEKQQMLEQHLQDVRKRVQDLEQKMKVVENLQDDFDFNYKTLKSQGDMQDLNGNNQSVTRQKMQQLEQMLTALDQMRRSIVSELAGLLSAMEYVQKTLTDEELADWKRRQQIACIGGPPNICLDRLENWITSLAESQLQTRQQIKKLEELQQKVSYKGDPIVQHRPMLEERIVELFRNLMKSAFVVERQPCMPMHPDRPLVIKTGVQFTTKVRLLVKFPELNYQLKIKVCIDKDSGDVAALRGSRKFNILGTNTKVMNMEESNNGSLSAEFKHLTLREQRCGNGGRANCDASLIVTEELHLITFETEVYHQGLKIDLETHSLPVVVISNICQMPNAWASILWYNMLTNNPKNVNFFTKPPIGTWDQVAEVLSWQFSSTTKRGLSIEQLTTLAEKLLGPGVNYSGCQITWAKFCKENMAGKGFSFWVWLDNIIDLVKKYILALWNEGYIMGFISKERERAILSTKPPGTFLLRFSESSKEGGVTFTWVEKDISGKTQIQSVEPYTKQQLNNMSFAEIIMGYKIMDATNILVSPLVYLYPDIPKEEAFGKYCRPESQEHPEADPGAAPYLKTKFICVTFIDAVWK
number of live B16 cells [2]: decreases dramatically
level of apoptosis [3]: 75%
expression levels of IL-4 and IL-10 mRNAs [4]: but not IL-4 and IL-10, were elevated
expression levels of IFN-β, TNF-α, IL-6 and IP-10 mRNAs ([4]; vs mock, control vector and UV-irradiated B16 cells): elevated
VEGF expression ([5]; v-Src NIH3T3, forty-eight hours): inhibits VEGF
